Measured values as given in paper PMC11976907 (Nature Communications, 2025).

Molecular target: T1, human TEX10 (43-929), His6-MBP fusion (human, UniProt Q9NXF1 43-929)
T1 sequence (looked up): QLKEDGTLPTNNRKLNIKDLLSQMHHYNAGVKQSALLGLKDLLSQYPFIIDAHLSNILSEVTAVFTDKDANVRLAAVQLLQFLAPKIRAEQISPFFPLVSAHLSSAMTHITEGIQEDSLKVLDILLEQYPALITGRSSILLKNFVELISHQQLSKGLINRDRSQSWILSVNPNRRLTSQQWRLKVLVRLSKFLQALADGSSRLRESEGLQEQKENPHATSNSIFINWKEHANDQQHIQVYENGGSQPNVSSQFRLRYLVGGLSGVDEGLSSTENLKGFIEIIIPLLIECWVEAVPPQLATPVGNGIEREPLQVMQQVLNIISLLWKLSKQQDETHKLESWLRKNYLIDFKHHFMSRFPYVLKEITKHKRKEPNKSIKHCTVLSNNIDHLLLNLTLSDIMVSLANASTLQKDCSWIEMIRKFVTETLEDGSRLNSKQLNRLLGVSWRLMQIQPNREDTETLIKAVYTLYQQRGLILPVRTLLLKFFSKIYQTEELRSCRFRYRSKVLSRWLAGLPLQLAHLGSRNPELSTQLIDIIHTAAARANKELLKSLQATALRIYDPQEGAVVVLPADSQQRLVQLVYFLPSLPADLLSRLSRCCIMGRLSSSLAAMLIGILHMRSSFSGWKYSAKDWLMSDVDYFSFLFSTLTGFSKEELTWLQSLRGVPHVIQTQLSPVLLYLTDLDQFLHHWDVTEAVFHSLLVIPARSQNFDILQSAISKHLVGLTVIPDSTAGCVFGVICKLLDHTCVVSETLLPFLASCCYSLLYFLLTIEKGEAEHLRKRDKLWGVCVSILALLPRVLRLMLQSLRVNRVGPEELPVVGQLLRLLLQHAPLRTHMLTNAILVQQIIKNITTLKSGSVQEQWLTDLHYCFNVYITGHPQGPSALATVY
Assay: cryo-EM structure

B1: human PELP1 (residues 1-642, Rix1 domain) (domain or fragment)
chain: not shown
B1: binds.
